In patent publication US20240307536A1:

Tests used:
Assay in all cases: cell-based or functional assay
[1] = biological target: CXCR3 on SAK cells (human) (UniProt P49682)
[2] = biological target: MHC class I on MV411 cells (human)
[3] = biological target: CXCR2 on SAK cells (human) (UniProt P25025)
Sequence of UniProt P25025 (P25025 whole entry): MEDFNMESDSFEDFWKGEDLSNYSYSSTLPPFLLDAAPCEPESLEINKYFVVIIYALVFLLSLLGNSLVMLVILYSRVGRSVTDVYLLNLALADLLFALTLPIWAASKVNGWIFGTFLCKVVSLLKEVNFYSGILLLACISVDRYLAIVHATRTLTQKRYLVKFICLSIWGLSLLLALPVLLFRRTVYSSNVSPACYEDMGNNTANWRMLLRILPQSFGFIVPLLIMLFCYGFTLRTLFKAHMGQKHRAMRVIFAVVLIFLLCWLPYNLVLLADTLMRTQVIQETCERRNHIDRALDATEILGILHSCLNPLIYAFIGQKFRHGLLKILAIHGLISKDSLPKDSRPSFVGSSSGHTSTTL

Sequence of UniProt P49682 (P49682 whole entry): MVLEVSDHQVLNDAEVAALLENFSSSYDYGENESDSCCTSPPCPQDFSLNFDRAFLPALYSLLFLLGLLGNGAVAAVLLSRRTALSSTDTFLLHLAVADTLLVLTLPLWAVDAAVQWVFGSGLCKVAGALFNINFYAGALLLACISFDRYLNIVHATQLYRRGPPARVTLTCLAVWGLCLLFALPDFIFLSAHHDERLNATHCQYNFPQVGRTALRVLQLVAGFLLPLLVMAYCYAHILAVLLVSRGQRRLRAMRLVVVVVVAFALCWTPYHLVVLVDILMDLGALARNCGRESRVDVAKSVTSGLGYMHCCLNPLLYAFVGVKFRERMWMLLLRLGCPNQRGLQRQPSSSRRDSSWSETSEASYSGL

IP-10 (PeproTech EC) (from UniProt P02778 22-98) (ligand)
Transwell migration of SAK cells within four hours, percentage of the input cells (500 ng/ml IP-10) [1]: 30%

anti-MHC I antibody (W6/32 clone, Biolegend)
cytotoxic activity of SAK cells against MV411 cells kept in the presence of 1 ug/ml anti-MHC I antibody, CFSE-based cytotoxicity assay [2]: > 40%

rhIL-8 (PeproTech EC) (from UniProt P10145 28-99) (ligand)
Transwell migration of SAK cells within four hours, percentage of the input cells (100 ng/mL IL-8) [3]: 3%
